The results in this text go back to patent publication US20180134780A1 (Hoffmann-La Roche, published 2018).

For the experiment, the target named is T1, Human angiopoietin-2 (ANG-2) (human, UniProt O15123 19-496, limits assumed).
T1 construct: Bought (R&D Systems Cat. No. 623-AN) or produced in house; also called ANGPT2; huAngiopoietin-2
T1 sequence: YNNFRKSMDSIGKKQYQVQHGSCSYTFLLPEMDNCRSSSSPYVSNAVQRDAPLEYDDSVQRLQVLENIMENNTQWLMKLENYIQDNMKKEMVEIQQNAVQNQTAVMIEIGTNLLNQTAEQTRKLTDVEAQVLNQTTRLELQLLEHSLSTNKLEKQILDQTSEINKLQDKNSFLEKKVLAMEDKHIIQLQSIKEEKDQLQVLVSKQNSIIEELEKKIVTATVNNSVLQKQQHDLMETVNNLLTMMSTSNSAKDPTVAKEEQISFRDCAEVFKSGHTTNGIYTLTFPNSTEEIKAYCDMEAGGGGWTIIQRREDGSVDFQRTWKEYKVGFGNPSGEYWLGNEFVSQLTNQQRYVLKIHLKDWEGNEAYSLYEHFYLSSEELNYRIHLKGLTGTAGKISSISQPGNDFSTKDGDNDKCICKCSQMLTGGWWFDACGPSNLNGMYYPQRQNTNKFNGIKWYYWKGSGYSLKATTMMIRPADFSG
The experiment is described as follows: ANG2/Tie2 receptor interaction ELISA (Experiment A): antibody dilutions pre-incubated with 0.2 ug/ml huAngiopoietin-2, coated human Tie2, bound ANG-2 detected. The method, then:
Blocking of human ANG-2/human Tie2 interaction was shown by receptor interaction ELISA. 384-well Maxisorp plates (Nunc) were coated with 0.5 μg/ml human Tie2 (R&D Systems, UK, Cat. No. 313-TI or in house produced material) for 2 h at room temperature and blocked with PBS supplemented with 0.2% Tween-20 and 2% BSA (Roche Diagnostics GmbH, DE) for 1 h at room temperature under shaking. In the meantime, Dilutions of purified antibodies in PBS were incubated together with 0.2 μg/ml huAngiopoietin-1/2 (R&D Systems #923-AN/CF, R&D Systems, UK, Cat. No. 623-AN or in house produced material) for 1 hour at RT. After washing a mixture of 0.5 μg/ml biotinylated anti-Angiopoietin-1/2 clone (R&D Systems #BAF923, BAM0981 R&D Systems, UK) and 1:3000 diluted streptavidin HRP (Roche Diagnostics GmbH, DE, Cat. No. 11089153001) was added for 1 h. Thereafter the plates were washed 6 times with PBST. Plates were developed with freshly prepared ABTS reagent (Roche Diagnostics GmbH, DE, buffer #204 530 001, tablets #11 112 422 001) for 30 minutes at RT. Absorbance was measured at 405 nm.

B1: <ANG-2>Ang2i_LC06 (antibody, V domains shown)
VH: not shown
VL: QPGLTQPPSVSVAPGQTARITCGGNNIGSKSVHWYQQKPGQAPVLVVYDDSDRPSGIPERFSGSNSGNTATLTISRVEAGDEADYYCQVWDSSSDHYVFGTGTKVTVLG
notes: also called anti-ANG2 antibody
In the case of B1, the IC50 is 0.1 nM.
